Test results as given in patent publication US5279812.
Read-outs that look alike come from different tables or passages of the source.

Tests used:
Bovine thrombin (bovine) [1] = molecular target: Bovine thrombin (bovine) (UniProt P00735)
Bovine thrombin (bovine) [2] = molecular target: Bovine thrombin (bovine) (UniProt P00735); remark: listed apart in the source

Substance “Suc 3,5-diI-Tyr Glu Pro Ile Pro Glu Glu Ala Cha D-Glu (ID#4) (peptide)” has an IC50, thrombin induced fibrin clot inhibition assay (turbidity at 405 nM) (Bovine thrombin (bovine) [1]) of under 25 µM.
“Suc--Tyr--Glu--Pro--Ile--Pro--Glu--Glu--Cha--D--Glu (ID#21) (peptide)” was tested, and the IC50, thrombin induced fibrin clot inhibition assay (turbidity at 405 nM) (Bovine thrombin (bovine) [2]) was under 25 µM.
For “Suc--Tyr--Glu--Pro--Ile--Pro--Glu--Glu--Cha--Gln--NH2 (ID#11) (peptide)”, the IC50, thrombin induced fibrin clot inhibition assay (turbidity at 405 nM) (Bovine thrombin (bovine) [2]) was under 25 µM.
With “Suc--Tyr--Glu--Pro--Tiq--Glu--Glu--Ala--Cha--D--Glu (ID#9) (peptide)” the IC50, thrombin induced fibrin clot inhibition assay (turbidity at 405 nM) (Bovine thrombin (bovine) [2]) was under 25 µM.
